This note sets out measurements from the Human Domainome abundance scans (Beltran et al. 2025).

Sequences and labels used below:
B1: Far upstream element-binding protein 3, residues 75 to 150; numbered along this chain, Q96I24 (parent)
chain: RTVITEEFKVPDKMVGFIIGRGGEQISRIQAESGCKIQIASESSGIPERPCVLTGTPESIEQAKRLLGQIVDRCRN

± gives the uncertainty stated by the source.

In this series the parent is B1. The series can be described thus: abundance fitness (aPCA) (normalised: wild type 0, dead -1); higher = more abundant; growth selection in yeast, the domain comes from the species named. The following applies: Homo sapiens.
With RTVITEEFKVPDKMVGFIIGRGGEQISRIQAESGCKIQIASESSGIPERPCVLTFTPESIEQAKRLLGQIVDRCRN, the abundance fitness was -1.17 ± 0.16.

Consider RTVITEEFKVPDKMVGFIIGRGGEQISRIQAESGCKIQIASESSGIPERPCVLTATPESIEQAKRLLGQIVDRCRN, for which the abundance fitness is -0.855 ± 0.04.

RTVITEEFKVPDKMVGFIIGRGGEQISRIQAESGCKIQIASESSGIPERPCVLTKTPESIEQAKRLLGQIVDRCRN: the abundance fitness was -0.972 ± 0.063.

On to RTVITEEFKVPDKMVGFIIGRGGEQISRIQAESGCKIQIASESSGIPERPCVLTSTPESIEQAKRLLGQIVDRCRN, for which the abundance fitness was -0.827 ± 0.045.

As to RTVITEEFKVPDKMVGFIIGRGGEQISRIQAESGCKIQIASESSGIPERPCVLTLTPESIEQAKRLLGQIVDRCRN, the abundance fitness is -1.39 ± 0.085.

Regarding RTVITEEFKVPDKMVGFIIGRGGEQISRIQAESGCKIQIASESSGIPERPCVLTVTPESIEQAKRLLGQIVDRCRN, the abundance fitness is -1.38 ± 0.066.

Consider RTVITEEFKVPDKMVGFIIGRGGEQISRIQAESGCKIQIASESSGIPERPCVLTYTPESIEQAKRLLGQIVDRCRN, for which the abundance fitness was -1.28 ± 0.17.

For RTVITEEFKVPDKMVGFIIGRGGEQISRIQAESGCKIQIASESSGIPERPCVLTQTPESIEQAKRLLGQIVDRCRN, the abundance fitness was -1.18 ± 0.083.

RTVITEEFKVPDKMVGFIIGRGGEQISRIQAESGCKIQIASESSGIPERPCVLTMTPESIEQAKRLLGQIVDRCRN: the abundance fitness is -1.24 ± 0.1.

Regarding RTVITEEFKVPDKMVGFIIGRGGEQISRIQAESGCKIQIASESSGIPERPCVLTHTPESIEQAKRLLGQIVDRCRN, the abundance fitness was -1.22 ± 0.14.

As to RTVITEEFKVPDKMVGFIIGRGGEQISRIQAESGCKIQIASESSGIPERPCVLTNTPESIEQAKRLLGQIVDRCRN, the abundance fitness is -0.989 ± 0.1.

RTVITEEFKVPDKMVGFIIGRGGEQISRIQAESGCKIQIASESSGIPERPCVLCGTPESIEQAKRLLGQIVDRCRN: the abundance fitness is -0.187 ± 0.066.

As for RTVITEEFKVPDKMVGFIIGRGGEQISRIQAESGCKIQIASESSGIPERPCVLSGTPESIEQAKRLLGQIVDRCRN, the abundance fitness was -0.078 ± 0.045.

Take RTVITEEFKVPDKMVGFIIGRGGEQISRIQAESGCKIQIASESSGIPERPCVLKGTPESIEQAKRLLGQIVDRCRN: the abundance fitness was -0.033 ± 0.051.

For RTVITEEFKVPDKMVGFIIGRGGEQISRIQAESGCKIQIASESSGIPERPCVLVGTPESIEQAKRLLGQIVDRCRN, the abundance fitness was -0.044 ± 0.041.

Take RTVITEEFKVPDKMVGFIIGRGGEQISRIQAESGCKIQIASESSGIPERPCVLDGTPESIEQAKRLLGQIVDRCRN: the abundance fitness is -0.187 ± 0.077.

For the variant RTVITEEFKVPDKMVGFIIGRGGEQISRIQAESGCKIQIASESSGIPERPCVLMGTPESIEQAKRLLGQIVDRCRN, the abundance fitness is -0.077 ± 0.05.

Turning to RTVITEEFKVPDKMVGFIIGRGGEQISRIQAESGCKIQIASESSGIPERPCVLAGTPESIEQAKRLLGQIVDRCRN, the abundance fitness is -0.11 ± 0.046.

As for RTVITEEFKVPDKMVGFIIGRGGEQISRIQAESGCKIQIASESSGIPERPCVLHGTPESIEQAKRLLGQIVDRCRN, the abundance fitness is -0.01 ± 0.079.

For RTVITEEFKVPDKMVGFIIGRGGEQISRIQAESGCKIQIASESSGIPERPCVLEGTPESIEQAKRLLGQIVDRCRN, the abundance fitness was -0.071 ± 0.05.

For the variant RTVITEEFKVPDKMVGFIIGRGGEQISRIQAESGCKIQIASESSGIPERPCVLRGTPESIEQAKRLLGQIVDRCRN, the abundance fitness was -0.018 ± 0.034.

For the variant RTVITEEFKVPDKMVGFIIGRGGEQISRIQAESGCKIQIASESSGIPERPCVLYGTPESIEQAKRLLGQIVDRCRN, the abundance fitness was -0.102 ± 0.071.

As for RTVITEEFKVPDKMVGFIIGRGGEQISRIQAESGCKIQIASESSGIPERPCVLWGTPESIEQAKRLLGQIVDRCRN, the abundance fitness was -0.269 ± 0.051.

In the case of RTVITEEFKVPDKMVGFIIGRGGEQISRIQAESGCKIQIASESSGIPERPCVLFGTPESIEQAKRLLGQIVDRCRN, the abundance fitness was -0.378 ± 0.23.

As for RTVITEEFKVPDKMVGFIIGRGGEQISRIQAESGCKIQIASESSGIPERPCVLLGTPESIEQAKRLLGQIVDRCRN, the abundance fitness was -0.129 ± 0.048.

RTVITEEFKVPDKMVGFIIGRGGEQISRIQAESGCKIQIASESSGIPERPCVLIGTPESIEQAKRLLGQIVDRCRN: the abundance fitness was -0.065 ± 0.12.

Turning to RTVITEEFKVPDKMVGFIIGRGGEQISRIQAESGCKIQIASESSGIPERPCVLNGTPESIEQAKRLLGQIVDRCRN, the abundance fitness was -0.1 ± 0.075.

In the case of RTVITEEFKVPDKMVGFIIGRGGEQISRIQAESGCKIQIASESSGIPERPCVLPGTPESIEQAKRLLGQIVDRCRN, the abundance fitness is -1.15 ± 0.12.

On to RTVITEEFKVPDKMVGFIIGRGGEQISRIQAESGCKIQIASESSGIPERPCVLGGTPESIEQAKRLLGQIVDRCRN, for which the abundance fitness is -0.512 ± 0.041.

Take RTVITEEFKVPDKMVGFIIGRGGEQISRIQAESGCKIQIASESSGIPERPCVTTGTPESIEQAKRLLGQIVDRCRN: the abundance fitness was -0.94 ± 0.077.

Consider RTVITEEFKVPDKMVGFIIGRGGEQISRIQAESGCKIQIASESSGIPERPCVQTGTPESIEQAKRLLGQIVDRCRN, for which the abundance fitness is -1.13 ± 0.12.

RTVITEEFKVPDKMVGFIIGRGGEQISRIQAESGCKIQIASESSGIPERPCVVTGTPESIEQAKRLLGQIVDRCRN: the abundance fitness is -0.227 ± 0.033.

Consider RTVITEEFKVPDKMVGFIIGRGGEQISRIQAESGCKIQIASESSGIPERPCVRTGTPESIEQAKRLLGQIVDRCRN, for which the abundance fitness is -1.25 ± 0.066.

Turning to RTVITEEFKVPDKMVGFIIGRGGEQISRIQAESGCKIQIASESSGIPERPCVPTGTPESIEQAKRLLGQIVDRCRN, the abundance fitness is -1.32 ± 0.17.

As for RTVITEEFKVPDKMVGFIIGRGGEQISRIQAESGCKIQIASESSGIPERPCVSTGTPESIEQAKRLLGQIVDRCRN, the abundance fitness was -0.838 ± 0.065.

In the case of RTVITEEFKVPDKMVGFIIGRGGEQISRIQAESGCKIQIASESSGIPERPCVWTGTPESIEQAKRLLGQIVDRCRN, the abundance fitness is -1.42 ± 0.13.
